Columns and labels:
[1] = biological target: human integrin αvβ8 on M000216 melanoma cells (human (endogenous in M000216)) (UniProt P06756); test: flow cytometry on cells
[2] = biological target: mouse integrin αvβ8 on B16-mβ8 cells (mouse (endogenous in B16) | mouse) (UniProt P43406); test: flow cytometry on cells
[3] = biological target: mouse integrin αvβ6 on CMT-93 cells (mouse (endogenous in CMT-93)) (UniProt P43406); test: flow cytometry on cells
[4] = biological target: mouse integrin αvβ6 on B16-mβ6 cells (mouse (endogenous in B16) | mouse) (UniProt P43406); test: flow cytometry on cells
[5] = biological target: recombinant soluble fiber knob of mouse adenovirus 3 (FK-M3) (mouse adenovirus 3 (MAdV-3)); test: SEC-MALS
[6] = biological target: biotinylated fiber knob of mouse adenovirus 3 (FKb-M3) (mouse adenovirus 3 (MAdV-3)); test: SPR; […], single cycle; Biacore T200, 20°C; […] (CaCl2, MgCl2, […]; 1:1 kinetic model
[7] = biological target: T1, soluble human integrin αvβ8 (sITG hαvβ8) (human, UniProt P06756;P26012); test: as above; settings: both partners purified
T1 construct: also called human sITG αvβ8
T1 sequence (P06756 31-992, chain 1 of 2): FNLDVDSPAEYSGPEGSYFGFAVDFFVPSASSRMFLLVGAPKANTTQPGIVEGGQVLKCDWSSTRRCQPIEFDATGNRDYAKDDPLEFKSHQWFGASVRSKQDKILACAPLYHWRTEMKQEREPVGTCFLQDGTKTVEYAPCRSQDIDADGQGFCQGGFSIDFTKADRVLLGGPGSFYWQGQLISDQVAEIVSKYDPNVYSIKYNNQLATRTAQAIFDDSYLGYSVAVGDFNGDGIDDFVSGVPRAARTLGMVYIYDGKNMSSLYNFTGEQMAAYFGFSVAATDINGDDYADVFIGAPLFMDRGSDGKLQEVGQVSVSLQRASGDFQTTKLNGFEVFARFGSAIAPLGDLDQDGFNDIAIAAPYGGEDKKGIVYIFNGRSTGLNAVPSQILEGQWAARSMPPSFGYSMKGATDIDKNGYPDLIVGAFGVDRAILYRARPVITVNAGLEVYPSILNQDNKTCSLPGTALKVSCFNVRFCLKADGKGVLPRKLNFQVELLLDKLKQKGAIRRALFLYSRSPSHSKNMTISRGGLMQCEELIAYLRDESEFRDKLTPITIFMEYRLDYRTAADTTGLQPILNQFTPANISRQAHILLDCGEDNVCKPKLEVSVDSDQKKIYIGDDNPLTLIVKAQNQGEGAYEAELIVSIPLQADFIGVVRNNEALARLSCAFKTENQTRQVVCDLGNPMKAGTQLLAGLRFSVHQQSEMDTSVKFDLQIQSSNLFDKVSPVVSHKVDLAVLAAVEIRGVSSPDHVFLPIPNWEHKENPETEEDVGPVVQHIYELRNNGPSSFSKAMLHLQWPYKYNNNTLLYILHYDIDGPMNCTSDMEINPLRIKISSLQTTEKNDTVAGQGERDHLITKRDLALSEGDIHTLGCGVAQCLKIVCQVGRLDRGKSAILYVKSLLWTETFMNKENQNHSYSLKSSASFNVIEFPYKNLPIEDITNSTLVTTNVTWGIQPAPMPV
T1 sequence (P26012 43-684, chain 2 of 2): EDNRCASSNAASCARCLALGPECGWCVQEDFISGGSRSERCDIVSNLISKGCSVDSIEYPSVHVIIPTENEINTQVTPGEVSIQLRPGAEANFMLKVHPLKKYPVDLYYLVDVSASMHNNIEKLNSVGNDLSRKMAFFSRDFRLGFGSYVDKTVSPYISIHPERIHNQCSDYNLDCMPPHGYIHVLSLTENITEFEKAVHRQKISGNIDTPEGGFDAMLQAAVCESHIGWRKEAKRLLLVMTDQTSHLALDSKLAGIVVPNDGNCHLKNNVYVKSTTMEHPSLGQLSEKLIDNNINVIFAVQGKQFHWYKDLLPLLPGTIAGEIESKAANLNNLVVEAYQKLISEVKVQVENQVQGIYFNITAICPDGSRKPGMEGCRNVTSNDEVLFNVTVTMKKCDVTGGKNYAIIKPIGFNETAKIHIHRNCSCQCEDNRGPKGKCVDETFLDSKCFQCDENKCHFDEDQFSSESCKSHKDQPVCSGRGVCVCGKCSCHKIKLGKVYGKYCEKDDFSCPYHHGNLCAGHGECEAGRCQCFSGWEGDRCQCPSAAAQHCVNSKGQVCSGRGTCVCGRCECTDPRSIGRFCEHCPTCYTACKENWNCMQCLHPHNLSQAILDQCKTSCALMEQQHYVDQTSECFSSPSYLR

[8] = biological target: T2, soluble human integrin αvβ6 (sITG hαvβ6) (human, UniProt P06756;P18564); test: as above; settings: both partners purified
T2 construct: also called human sITG αvβ6
T2 sequence (P06756 31-992, chain 1 of 2): as the sequence (P06756 31-992, chain 1 of 2) above
T2 sequence (P18564 22-709, chain 2 of 2): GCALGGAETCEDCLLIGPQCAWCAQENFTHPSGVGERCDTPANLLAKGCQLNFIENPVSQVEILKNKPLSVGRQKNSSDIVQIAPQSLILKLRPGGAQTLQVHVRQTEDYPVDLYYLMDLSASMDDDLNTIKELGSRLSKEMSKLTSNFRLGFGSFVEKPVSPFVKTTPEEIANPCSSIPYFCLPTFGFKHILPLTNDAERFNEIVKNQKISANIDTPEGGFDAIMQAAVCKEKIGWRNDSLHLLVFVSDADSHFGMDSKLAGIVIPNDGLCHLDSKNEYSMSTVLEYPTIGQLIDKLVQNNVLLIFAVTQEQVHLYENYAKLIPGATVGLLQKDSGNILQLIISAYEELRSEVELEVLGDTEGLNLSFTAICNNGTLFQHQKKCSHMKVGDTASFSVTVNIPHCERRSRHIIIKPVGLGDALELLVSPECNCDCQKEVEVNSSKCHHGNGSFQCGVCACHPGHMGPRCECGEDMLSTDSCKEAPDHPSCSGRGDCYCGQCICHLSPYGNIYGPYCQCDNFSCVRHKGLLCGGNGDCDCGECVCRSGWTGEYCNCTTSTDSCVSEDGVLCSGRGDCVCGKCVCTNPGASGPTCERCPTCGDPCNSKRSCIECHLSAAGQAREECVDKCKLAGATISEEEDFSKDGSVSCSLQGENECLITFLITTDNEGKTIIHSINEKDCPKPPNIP

[9] = biological target: T3, soluble mouse integrin αvβ6 (sITG mαvβ6) (mouse, UniProt P43406;Q9Z0T9); test: as above; settings: both partners purified
T3 construct: also called mouse sITG αvβ6; source: bought: R&D Systems, expressed in and secreted from CHO cells
T3 sequence (P43406 31-988, chain 1 of 2): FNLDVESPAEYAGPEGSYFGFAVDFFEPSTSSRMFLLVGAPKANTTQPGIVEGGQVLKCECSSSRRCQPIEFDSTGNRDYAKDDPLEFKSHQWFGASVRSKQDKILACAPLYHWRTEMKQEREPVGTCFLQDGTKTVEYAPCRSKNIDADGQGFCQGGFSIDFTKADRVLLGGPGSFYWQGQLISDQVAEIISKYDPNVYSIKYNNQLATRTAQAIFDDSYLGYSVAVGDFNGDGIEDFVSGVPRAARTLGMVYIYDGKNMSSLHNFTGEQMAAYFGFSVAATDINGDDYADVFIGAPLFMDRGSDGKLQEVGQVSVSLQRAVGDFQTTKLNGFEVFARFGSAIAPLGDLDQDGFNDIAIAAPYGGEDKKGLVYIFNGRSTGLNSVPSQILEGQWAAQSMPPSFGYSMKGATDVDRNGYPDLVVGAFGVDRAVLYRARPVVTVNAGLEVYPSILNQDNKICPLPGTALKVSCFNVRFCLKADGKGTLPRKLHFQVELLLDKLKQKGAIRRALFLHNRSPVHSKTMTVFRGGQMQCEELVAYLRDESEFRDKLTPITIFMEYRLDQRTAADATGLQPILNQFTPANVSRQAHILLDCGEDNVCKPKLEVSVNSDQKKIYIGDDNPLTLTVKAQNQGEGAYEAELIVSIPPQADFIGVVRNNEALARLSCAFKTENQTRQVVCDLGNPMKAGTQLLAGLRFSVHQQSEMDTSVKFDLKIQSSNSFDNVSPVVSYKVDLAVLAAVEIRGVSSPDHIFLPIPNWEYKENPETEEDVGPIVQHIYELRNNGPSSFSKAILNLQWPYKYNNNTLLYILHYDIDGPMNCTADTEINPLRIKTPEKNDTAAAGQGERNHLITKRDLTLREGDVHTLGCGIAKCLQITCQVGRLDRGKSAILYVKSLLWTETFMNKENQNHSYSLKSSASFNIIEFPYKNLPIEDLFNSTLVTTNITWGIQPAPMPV
T3 sequence (Q9Z0T9 22-708, chain 2 of 2): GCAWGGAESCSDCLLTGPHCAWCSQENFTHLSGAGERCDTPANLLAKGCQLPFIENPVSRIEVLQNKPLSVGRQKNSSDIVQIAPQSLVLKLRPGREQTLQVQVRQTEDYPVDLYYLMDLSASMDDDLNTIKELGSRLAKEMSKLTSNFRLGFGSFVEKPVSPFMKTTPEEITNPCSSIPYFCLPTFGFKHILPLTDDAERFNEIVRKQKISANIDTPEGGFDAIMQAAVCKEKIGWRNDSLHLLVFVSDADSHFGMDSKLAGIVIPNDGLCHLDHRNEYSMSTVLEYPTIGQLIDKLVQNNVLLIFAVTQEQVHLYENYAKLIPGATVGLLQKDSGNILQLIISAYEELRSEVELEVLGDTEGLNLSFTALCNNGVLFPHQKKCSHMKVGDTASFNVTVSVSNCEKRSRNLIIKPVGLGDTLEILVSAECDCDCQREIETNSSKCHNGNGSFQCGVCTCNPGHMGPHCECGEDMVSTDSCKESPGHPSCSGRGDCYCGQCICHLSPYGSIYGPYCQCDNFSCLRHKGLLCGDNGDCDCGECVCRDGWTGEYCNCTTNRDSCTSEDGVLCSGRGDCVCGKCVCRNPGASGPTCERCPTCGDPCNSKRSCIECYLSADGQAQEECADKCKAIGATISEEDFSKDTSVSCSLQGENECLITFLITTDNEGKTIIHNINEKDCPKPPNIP

SEC-MALS = biological target: the molecule itself; test: SEC-MALS
[10] = biological target: T4, mouse integrin αvβ6 on B16-mβ6 cells (mouse (endogenous in B16) | mouse, UniProt P43406;Q9Z0T9); test: flow cytometry on cells; settings: one partner purified
T4 construct: also called mαvβ6

Molecule “MAdV-1-IX-2A-GFP virus particles (M1-IX-G), bearing the M1 fiber (from UniProt P19721 1-613) (complex)” has a fold increase of the binding enhancement in the presence of Mn2+ [1] of 1.5 fold and a fold increase of virus binding, Mg2+/Ca2+ buffer [2] of 1.3 fold.

In the case of “recombinant soluble fiber knob of mouse adenovirus 3 (FK-M3) (domain or fragment)”, the Kd [3] is reported as 0.069 nM, the Kd [4] is reported as 0.068 nM and the Kd [1] is reported as 1.21 nM. It also gave a Kd [2] of 1.31 nM and a stoichiometry N [5] of 3.

“soluble human integrin αvβ6 (sITG hαvβ6) (from UniProt P06756;P18564) (receptor)” was tested, and the Kd [6] was 0.059 nM, the koff [6] was 5.01e-06 s⁻¹ and the kon [6] was 85000 M⁻¹ s⁻¹.

For “MAdV-3-IX-2A-GFP virus particles (M3-IX-G), bearing the M3 fiber (complex)”, the fold increase of the binding enhancement in the presence of Mn2+ [1] was 3.4 fold, the fold increase of virus binding, Mg2+/Ca2+ buffer [2] was 1.3 fold and the fold increase of virus binding, Mn2+ buffer [2] was 2.7 fold.

“soluble mouse integrin αvβ6 (sITG mαvβ6) (from UniProt P43406;Q9Z0T9) (receptor)” gave a Kd [6] of less than 0.01 nM, a koff [6] of 3.12e-08 s⁻¹ and a kon [6] of 51300 M⁻¹ s⁻¹.

“soluble human integrin αvβ8 (sITG hαvβ8) (from UniProt P06756;P26012) (receptor)” gave a Kd [6] of 1.32 nM, a koff [6] of 0.000965 s⁻¹ and a kon [6] of 729000 M⁻¹ s⁻¹.

B1: biotinylated fiber knob of mouse adenovirus 1 (FKb-M1) (domain or fragment)
chain: GLPIGNNGTFHTKQDCKIFLSLTRLGPMVHGTFMLQAPQYELTTNGMREITFSFNSTGGLEQPAPVTYWGALDPPPTAKAAEIENQKRVKKRAAPDPPVEPPPKRRGDLAVLFAKVAEQAMELAKEQAVQAQPPEHVNTDWADHMNLLRFMPNTLVYPTAATIAANLQFHDTRLSLRRATLKIRLNGSPDSAYQLGFMLELVGTQSASIVTDTISFWYYAEDY
modifications: biotin (biotinylated by co-expressed protein biotin ligase BirA)
Work on B1 yielded a Kd [7] of 14.5 nM, a koff [7] of 0.00673 s⁻¹ and a kon [7] of 465000 M⁻¹ s⁻¹. The Kd [8] was 1.58 nM, the koff [8] was 0.000127 s⁻¹ and the kon [8] was 80200 M⁻¹ s⁻¹. For the same molecule, the Kd [9] was 0.25 nM, the koff [9] was 1.66e-05 s⁻¹ and the kon [9] was 66400 M⁻¹ s⁻¹. The “stoichiometry N” value (SEC-MALS) was 3.

B2: recombinant soluble fiber knob of mouse adenovirus 1 (FK-M1) (domain or fragment)
chain: B1 chain
notes: source: pET28a expression, purified (Ni-NTA); not shown: His6, N-terminal, kept
Work on B2 yielded a Kd [10] of 1.27 ± 0.66 nM.

B3: biotinylated fiber knob of human adenovirus C5 (FKb-H5) (domain or fragment)
chain: TPAPSPNCRLNAEKDAKLTLVLTKCGSQILATVSVLAVKGSLAPISGTVQSAHLIIRFDENGVLLNNSFLDPEYWNFRNGDLTEGTAYTNAVGFMPNLSAYPKSHGKTAKSNIVSQVYLNGDKTKPVTLTITLNGTQETGDTTPSAYSMSFSWDWSGHNYINEIFATSSYTFSYIAQE
modifications: biotin (biotinylated by co-expressed protein biotin ligase BirA)
B3 was tested, and the “stoichiometry N” value (SEC-MALS) was 3.
